IC50 data for one molecule are collected here from publication PMC12945441 (2022).

The experiment addresses SARS-CoV-2 Wuhan-Hu-1 receptor-binding domain (SARS-CoV-2 Wuhan-Hu-1). Kind of experiment: ELISA.

B1: S2X324 mAb (antibody, V domains shown)
VH: QITLKESGPTLVKPTQTLTLTCTFSGFSVTTSGVGVGWIRQPPGKALEYLALIYWDDDKRYSTSLKSRLTITKDTSKNQVVLTMTNMDPVDTATYYCARHTIPSIFDYWGQGILVTVSS
VL: QPVLTQPASVSGSPGQSITISCTATSSDVGNYNYVSWYQHHPGKAPKLMIYEVSNRPSGVSNRFSGSKSGNTASLTISGLQAEDEADYYCSSYTSSSLLFGGGTKLTVL
Regarding B1, the IC50 worked out at 0.0267 µg/mL.
